Assay results from patent US20240092918A1 (Novartis, published 2024).

T1: Human CCR7 (human, UniProt P32248 25-378)
T1 sequence: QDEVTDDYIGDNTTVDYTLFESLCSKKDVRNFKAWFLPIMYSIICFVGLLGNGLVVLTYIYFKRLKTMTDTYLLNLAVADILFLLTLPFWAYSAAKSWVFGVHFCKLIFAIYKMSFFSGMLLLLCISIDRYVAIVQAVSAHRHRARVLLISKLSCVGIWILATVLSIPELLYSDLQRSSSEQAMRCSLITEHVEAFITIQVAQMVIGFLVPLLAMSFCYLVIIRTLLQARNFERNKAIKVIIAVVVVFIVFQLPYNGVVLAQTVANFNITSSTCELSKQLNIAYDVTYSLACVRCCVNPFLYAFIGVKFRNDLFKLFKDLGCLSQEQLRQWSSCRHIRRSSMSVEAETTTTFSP

T2: recombinant CCR7 (Origene #TP306614) (human, UniProt P32248 25-378, limits assumed)
T2 construct: Bought protein coated on ELISA plates; also called recombinant hCCR7
T2 sequence (looked up): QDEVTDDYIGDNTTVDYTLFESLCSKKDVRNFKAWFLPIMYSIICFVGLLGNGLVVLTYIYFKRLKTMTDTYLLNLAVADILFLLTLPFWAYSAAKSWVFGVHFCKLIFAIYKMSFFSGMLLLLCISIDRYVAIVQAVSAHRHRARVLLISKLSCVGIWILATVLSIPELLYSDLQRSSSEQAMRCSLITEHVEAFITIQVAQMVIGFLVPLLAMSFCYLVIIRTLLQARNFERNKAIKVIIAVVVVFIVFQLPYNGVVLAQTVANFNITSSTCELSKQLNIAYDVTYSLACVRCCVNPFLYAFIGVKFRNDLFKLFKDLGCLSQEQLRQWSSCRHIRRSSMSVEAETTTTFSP

T3: Rat CCR7 (rat, UniProt P47774 25-378 (mouse entry))
T3 construct: On NIH3T3 cells or CD4+ T cells of Wistar rats; also called NIH3T3.rat CCR7
T3 chain: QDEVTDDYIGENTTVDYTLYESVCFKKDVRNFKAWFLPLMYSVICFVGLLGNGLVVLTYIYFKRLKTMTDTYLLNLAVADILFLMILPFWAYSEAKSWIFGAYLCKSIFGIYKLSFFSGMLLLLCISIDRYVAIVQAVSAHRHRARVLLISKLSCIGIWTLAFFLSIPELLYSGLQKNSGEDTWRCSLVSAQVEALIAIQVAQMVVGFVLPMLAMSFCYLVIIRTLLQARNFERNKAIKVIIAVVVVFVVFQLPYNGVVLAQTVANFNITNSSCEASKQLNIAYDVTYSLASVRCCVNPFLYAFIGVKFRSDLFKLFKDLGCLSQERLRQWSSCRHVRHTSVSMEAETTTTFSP

T4: Mouse CCR7 (mouse, UniProt P47774 25-378)
T4 construct: On NIH3T3 cells or CD4+ T cells of CD-1 mice; also called NIH3T3.mouse CCR7
T4 sequence: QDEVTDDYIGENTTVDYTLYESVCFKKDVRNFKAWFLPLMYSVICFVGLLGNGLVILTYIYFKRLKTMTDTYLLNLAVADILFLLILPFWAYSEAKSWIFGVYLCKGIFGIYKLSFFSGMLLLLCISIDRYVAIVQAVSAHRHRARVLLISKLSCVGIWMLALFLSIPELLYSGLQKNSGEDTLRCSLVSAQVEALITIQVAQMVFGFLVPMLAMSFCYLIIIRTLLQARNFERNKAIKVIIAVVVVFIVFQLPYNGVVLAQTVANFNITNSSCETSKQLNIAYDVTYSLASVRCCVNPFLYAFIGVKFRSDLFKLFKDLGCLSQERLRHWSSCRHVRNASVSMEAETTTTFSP


Assays:
Human CCR7 [1] = target: T1, Human CCR7; assay: cell-based or functional assay
Human CCR7 [2] = target: T1, Human CCR7; assay: FACS competition on DEL cells (CCR7+), antibody titrated up to 100 nM applied together with the competitor CCL19 kept at 1 uM (panel 'ligand 1uM'), detection anti-hFc.PE, MFI [panel ligand 1uM]
[3] = target: T2, recombinant CCR7 (Origene #TP306614); assay: ELISA, plate coated with 3.5 ug/ml recombinant CCR7 (Origene #TP306614), antibody in serial dilution, detection anti-hFc gamma-HRP, absorbance at 650 nm
Procedure: Binding and affinity was also assessed in an ELISA-based assay using recombinant CCR7 (Origene #TP306614). Maxisorp™ 384-well plates (Thermo Nunc) were coated with 3.5 μg/ml of recombinant CCR7 diluted in PBS. After blocking with 3% BSA (bovine serum albumin) in PBS for 1 hr at room temperature, washing plates 3× with PBS-T (0.01% Tween 20 in PBS), primary antibodies were added in a serial dilution and incubated for 1 hr at room temperature.

Rat CCR7 = target: T3, Rat CCR7; assay: FACS, NIH3T3 cell series and CD4+ T cells
Procedure: (§1) For this purpose, CCR7 positive cells were harvested (adherent cells were detached with Accutase), washed twice with FACS buffer (PBS/3% FCS/0.02% sodium azide) and diluted to approximately 2×10⁶ cells/ml in FACS buffer. All subsequent steps were done on ice to prevent internalization of the receptor. 100 μl cell suspension/well were transferred into 96-well U-bottom plates (Falcon). 2×10⁵ cells/well were incubated with a serial dilution of antibody concentrations of the anti-CCR7 antibody-of-interest ranging across several logs, starting at a high of 100 nM for 60 minutes at 4° C., gently shaking. Following incubation, cells were spun down (1200 rpm, 2 min, 4° C.) and washed three times with FACS buffer. A fluorophore-conjugated anti-hFc gamma-APC (Jackson ImmunoResearch) detection antibody was added at 1:400 and samples were incubated for 1 h on ice in the dark, gently shaken. After a final wash, cells were resuspended in 100 μl of FACS buffer containing 0.2 μg/ml DAPI followed by readout on the flow cytometry machine (BD LSRFortessa Cell Analyzer; Cat #647177). Mean fluorescence intensity (MFI) of live, single cells was calculated in Flowjo 10.0.8 and exported into Graphpad Prism6 for EC50 determination.

Mouse CCR7 = target: T4, Mouse CCR7; assay: FACS, NIH3T3 cell series and CD4+ T cells
Procedure: as §1

pHrodo (6 h MFI), uptake of pHrodo-labelled antibody at 5 ug/ml, CD4+ T cells (2000 receptors) (Human CCR7 [1]) [MFI]	pHrodo (6 h MFI), uptake of pHrodo-labelled antibody at 5 ug/ml, CMLT1 cells (19583 receptors) (Human CCR7 [1]) [MFI]	pHrodo (6 h MFI), uptake of pHrodo-labelled antibody at 5 ug/ml, DEL cells (110685 receptors) (Human CCR7 [1]) [MFI]	pHrodo (6 h MFI), uptake of pHrodo-labelled antibody at 5 ug/ml, JVM3 cells (8717 receptors) (Human CCR7 [1]) [MFI]	pHrodo (6 h MFI), uptake of pHrodo-labelled antibody at 5 ug/ml, Jeko-1 cells (28852 receptors) (Human CCR7 [1]) [MFI]	pHrodo (6 h MFI), uptake of pHrodo-labelled antibody at 5 ug/ml, KE97 cells (152093 receptors) (Human CCR7 [1]) [MFI]	pHrodo (6 h MFI), uptake of pHrodo-labelled antibody at 5 ug/ml, L540 cells (167549 receptors) (Human CCR7 [1]) [MFI]	pHrodo (6 h MFI), uptake of pHrodo-labelled antibody at 5 ug/ml, L1236 cells (61602 receptors) (Human CCR7 [1]) [MFI]	pHrodo (6 h MFI), uptake of pHrodo-labelled antibody at 5 ug/ml, MJ cells (111121 receptors) (Human CCR7 [1]) [MFI]	pHrodo (6 h MFI), uptake of pHrodo-labelled antibody at 5 ug/ml, MOTN1 cells (84200 receptors) (Human CCR7 [1]) [MFI]	pHrodo (6 h MFI), uptake of pHrodo-labelled antibody at 5 ug/ml, Mec2 cells (50840 receptors) (Human CCR7 [1]) [MFI]	EC50 (read off the curve) (Human CCR7 [2]) [nM]	EC50 (read off the curve) [3] [nM]	binding result (Rat CCR7)	binding result (Mouse CCR7)	Binder
402	561	3780	146	1390	4420	11800	5820	3260	2540	3000	2 to 3				674J13 (Humanized, CysMab DAPA) (antibody, human IgG1, kappa, V domains shown, Human IgG1 kappa, E152C/S375C, D265A/P329A; In the pHrodo assay it carried maleimide-pHrodo (DAR 4); also called 674J13.CysMab.DAPA; 674J13.DAPA) VH: DVQLQESGPGLVKPSQTLSLTCTVSGYSITSGYSWHWIRQHPGKGLEWMAHIHSSGSTNYNPSLKSRITISRDTSKNQFSLKLSSVTAADTAVYYCARGGVQAFAYWGQGTLVTVSS VL: EIVLTQSPATLSASPGERVTMSCSASSSVIYMHWYQQKPGQAPRRWIYDTSKLASGVPARFSGSGSGTDYTLTISSMEPEDAAVYYCQQWSSNPLTFGQGTKLEIKR
278	301	1910	148	450	1570	6840	1240	1650	1030	1340		~0.7			121G12 (Humanized CysMab, DAPA) (antibody, human IgG1, kappa, Human IgG1 kappa, E152C/S375C, D265A/P329A; In the pHrodo assay it carried maleimide-pHrodo (DAR 4); also called 121G12.CysMab.DAPA; 121G12.DAPA) heavy: EVQLVESGGGLVKPGGSLRLSCAASGFTFSTYAMSWVRQAPGKGLEWVATISDAGSYSYYPDNVKGRFTISRDNAKNSLYLQMNSLRAEDTAVYYCARRGSRYEEYYVMDYWGQGTTVTVSSASTKGPSVFPLAPSSKSTSGGTAALGCLVKDYFPCPVTVSWNSGALTSGVHTFPAVLQSSGLYSLSSVVTVPSSSLGTQTYICNVNHKPSNTKVDKRVEPKSCDKTHTCPPCPAPELLGGPSVFLFPPKPKDTLMISRTPEVTCVVVAVSHEDPEVKFNWYVDGVEVHNAKTKPREEQYNSTYRVVSVLTVLHQDWLNGKEYKCKVSNKALAAPIEKTISKAKGQPREPQVYTLPPSREEMTKNQVSLTCLVKGFYPCDIAVEWESNGQPENNYKTTPPVLDSDGSFFLYSKLTVDKSRWQQGNVFSCSVMHEALHNHYTQKSLSLSPGK light: EIVLTQSPATLSVSPGERVTLSCRASQSISNNLHWYQQKPGQAPRLLIKYASQSISGIPARFSGSGSGTDFTLTISSVEPEDFGVYFCQQSSSWLTFGQGTKLEIKRTVAAPSVFIFPPSDEQLKSGTASVVCLLNNFYPREAKVQWKVDNALQSGNSQESVTEQDSKDSTYSLSSTLTLSKADYEKHKVYACEVTHQGLSSPVTKSFNRGEC
													no binding	no binding	121G12 humanized CysMab (Fc Wild Type) (antibody, human IgG1, V domains shown, Human IgG1 kappa with E152C/S375C (CysMab) and wild type Fc) VH: EVQLVESGGGLVKPGGSLRLSCAASGFTFSTYAMSWVRQAPGKGLEWVATISDAGSYSYYPDNVKGRFTISRDNAKNSLYLQMNSLRAEDTAVYYCARRGSRYEEYYVMDYWGQGTTVTVSS VL: EIVLTQSPATLSVSPGERVTLSCRASQSISNNLHWYQQKPGQAPRLLIKYASQSISGIPARFSGSGSGTDFTLTISSVEPEDFGVYFCQQSSSWLTFGQGTKLEIK
